Assay [1] has as its target T1, human CD147 variant 2 expressed on CHO-K1 cells (pcDNA-DEST40-CD147v2) (human, UniProt P35613 140-385).
T1 construct: also called CHO-K1-hCD147v2; human CD147 expressing CHO-K1 cells
T1 sequence: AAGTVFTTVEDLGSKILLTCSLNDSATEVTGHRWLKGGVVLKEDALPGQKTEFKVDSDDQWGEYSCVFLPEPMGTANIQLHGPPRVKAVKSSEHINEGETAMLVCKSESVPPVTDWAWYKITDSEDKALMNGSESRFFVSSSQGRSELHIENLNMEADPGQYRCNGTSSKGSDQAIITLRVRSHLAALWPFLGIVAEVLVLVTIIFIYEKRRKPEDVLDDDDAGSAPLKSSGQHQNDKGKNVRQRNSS
Description: flow cytometry, CHO-K1 cells transfected with human CD147v2, antibody 10 µg/ml, anti-mouse IgG-FITC (Example 1)-8).
Description: In the graphs, the vertical axis represents the number of cells, and the horizontal axis represents the intensity of fluorescence signals.

The target of assay [2] is T2, human-cynomolgus monkey chimeric CD147 hCD147-mu3, on CHO-K1 cells (human, UniProt P35613 140-385).
T2 construct: also called hCD147-mu3_pcDNA3.1; CD147 with mu3 mutation
T2 chain: T1 sequence with A45T, E52D, K54E, Q60L
Description: flow cytometry, transfected CHO-K1 cells.
Description: Samples with an increase in fluorescence signals of 10 times or more as compared with those in the control cells that were not treated with primary antibodies were determined to be binding positive (+). Samples with a partial increase in fluorescence signals of less than 10 times were determined to be binding slightly positive (±). Samples with no increase in fluorescence signals as compared with those in the control cells that were not treated with primary antibodies were determined to be binding negative (−).

Residue numbers refer to the chain shown, from its start.

These results are taken from US20200362033A1 (Daiichi Sankyo, published 2020).

B1: LN22R8 (antibody, V domains shown)
VH: QIQLVQSGPELKKPGETVKISCKASGYTFTNYGMNWVKQAPGKGLKWMGWINTYTGEPTYADDFKGRFAFSLETSASTAYLQINNLKNEDTATYFCARGGYGNYGAGAMDYWGQGTSVTVSS
VL: DIQMTQSPSSLSASLGERVSLTCRASLEISGFLSWLQQKPDGTIKRLIYAASILDSGVPKRFSGSRSGSDYSLTISSLESEDFADYYCLQYASYPWTFGGGTKLEIKR
notes: also called mouse anti-human CD147 antibody (LN22R8)
B1: the figures for the binding result in assay [1] and in assay [2] were “binds” and “no binding (tested: 10 µg/ml)”, respectively.

B2: 2P10F2 (antibody, V domains shown)
VH: EVQLQESGPGLVKPSQSLSLTCSVTGYSITSNYWGWIRKFPGNKMEWMGCITYSGGTSYNPSLKSRISITRDTSKNQFFLQLNSVTTEDTATYYCASSYTSGDVDYWGQGVMVTVSS
VL: DIQMTQSPASLSASLGETVSIECLASEGISNSLAWYQQKPGKSPQLLIYGASSLQDGVPSRFSGSGSGTQYSLKISGMQPEDEGVYYCQQGYKYPFTFGSGTKLEIKR
notes: also called 2P10F2 rat antibody
For the molecule B2, in assay [2], the binding result is on record as “no binding (tested: 10 µg/ml)”.
